Drawing on US20060111296A1 (DYAX, published 2006), this text covers Ki for one molecule.

The experiment deals with T1, plasmin (human, UniProt P00747 97-810, limits assumed).
T1 construct: Active plasmin is a two-chain, disulfide-linked form of plasminogen; also called human plasmin
The experiment in a line: inhibition constant for human plasmin; method not described.

T1 sequence (P00747 97-810 limits assumed): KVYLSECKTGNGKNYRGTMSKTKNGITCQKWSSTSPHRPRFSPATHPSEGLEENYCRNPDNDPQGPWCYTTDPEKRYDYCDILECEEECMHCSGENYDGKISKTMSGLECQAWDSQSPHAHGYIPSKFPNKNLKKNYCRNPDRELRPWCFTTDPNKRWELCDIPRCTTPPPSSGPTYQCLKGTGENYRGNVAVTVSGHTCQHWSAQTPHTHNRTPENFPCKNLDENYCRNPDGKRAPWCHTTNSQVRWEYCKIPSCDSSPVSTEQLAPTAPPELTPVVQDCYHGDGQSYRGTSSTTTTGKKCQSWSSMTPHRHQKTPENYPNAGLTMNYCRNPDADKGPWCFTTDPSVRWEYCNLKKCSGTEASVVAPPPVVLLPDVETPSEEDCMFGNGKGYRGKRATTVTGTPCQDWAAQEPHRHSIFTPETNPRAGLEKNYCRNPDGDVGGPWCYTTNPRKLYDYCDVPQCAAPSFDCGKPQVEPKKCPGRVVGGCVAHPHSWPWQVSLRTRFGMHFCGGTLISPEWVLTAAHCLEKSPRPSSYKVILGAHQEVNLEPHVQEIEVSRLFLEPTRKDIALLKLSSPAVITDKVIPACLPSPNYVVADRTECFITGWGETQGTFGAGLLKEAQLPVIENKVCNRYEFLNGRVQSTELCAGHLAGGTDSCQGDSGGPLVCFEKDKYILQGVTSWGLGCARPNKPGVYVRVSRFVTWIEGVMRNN

B1: DX-1000 (designed binder)
chain: MHSFCAFKAETGPCRARFDRWFFNIFTRQCEEFIYGGCEGNQNRFESLEECKKMCTRD
notes: Engineered Kunitz domain on the human LACI-K1 framework; also called DX-1000 (unmodified)
In turn, B1 had a Ki of 0.088 nM.

In general, Ki refers to a measure of affinity in units of concentration, obtained from inhibition or displacement. A high value points to weaker binding.
